For test [1], the target named is clathrin/AP cages (Bos taurus, UniProt P49951). The test can be described thus: NMR line-broadening with assembled clathrin/AP cages. The following applies: 2.5 mM peptide. It is filed as binding, bovine.
The target of test [2] is assembled clathrin/AP cages (bovine (purified from bovine brain)) (UniProt P49951). Nature of the test: NMR line-broadening.
The mark [3] stands for this setting: 20 mg/ml cages, line-width with cages minus without.

acyl = not defined here

clathrin/AP cages, sequence (P49951 whole entry): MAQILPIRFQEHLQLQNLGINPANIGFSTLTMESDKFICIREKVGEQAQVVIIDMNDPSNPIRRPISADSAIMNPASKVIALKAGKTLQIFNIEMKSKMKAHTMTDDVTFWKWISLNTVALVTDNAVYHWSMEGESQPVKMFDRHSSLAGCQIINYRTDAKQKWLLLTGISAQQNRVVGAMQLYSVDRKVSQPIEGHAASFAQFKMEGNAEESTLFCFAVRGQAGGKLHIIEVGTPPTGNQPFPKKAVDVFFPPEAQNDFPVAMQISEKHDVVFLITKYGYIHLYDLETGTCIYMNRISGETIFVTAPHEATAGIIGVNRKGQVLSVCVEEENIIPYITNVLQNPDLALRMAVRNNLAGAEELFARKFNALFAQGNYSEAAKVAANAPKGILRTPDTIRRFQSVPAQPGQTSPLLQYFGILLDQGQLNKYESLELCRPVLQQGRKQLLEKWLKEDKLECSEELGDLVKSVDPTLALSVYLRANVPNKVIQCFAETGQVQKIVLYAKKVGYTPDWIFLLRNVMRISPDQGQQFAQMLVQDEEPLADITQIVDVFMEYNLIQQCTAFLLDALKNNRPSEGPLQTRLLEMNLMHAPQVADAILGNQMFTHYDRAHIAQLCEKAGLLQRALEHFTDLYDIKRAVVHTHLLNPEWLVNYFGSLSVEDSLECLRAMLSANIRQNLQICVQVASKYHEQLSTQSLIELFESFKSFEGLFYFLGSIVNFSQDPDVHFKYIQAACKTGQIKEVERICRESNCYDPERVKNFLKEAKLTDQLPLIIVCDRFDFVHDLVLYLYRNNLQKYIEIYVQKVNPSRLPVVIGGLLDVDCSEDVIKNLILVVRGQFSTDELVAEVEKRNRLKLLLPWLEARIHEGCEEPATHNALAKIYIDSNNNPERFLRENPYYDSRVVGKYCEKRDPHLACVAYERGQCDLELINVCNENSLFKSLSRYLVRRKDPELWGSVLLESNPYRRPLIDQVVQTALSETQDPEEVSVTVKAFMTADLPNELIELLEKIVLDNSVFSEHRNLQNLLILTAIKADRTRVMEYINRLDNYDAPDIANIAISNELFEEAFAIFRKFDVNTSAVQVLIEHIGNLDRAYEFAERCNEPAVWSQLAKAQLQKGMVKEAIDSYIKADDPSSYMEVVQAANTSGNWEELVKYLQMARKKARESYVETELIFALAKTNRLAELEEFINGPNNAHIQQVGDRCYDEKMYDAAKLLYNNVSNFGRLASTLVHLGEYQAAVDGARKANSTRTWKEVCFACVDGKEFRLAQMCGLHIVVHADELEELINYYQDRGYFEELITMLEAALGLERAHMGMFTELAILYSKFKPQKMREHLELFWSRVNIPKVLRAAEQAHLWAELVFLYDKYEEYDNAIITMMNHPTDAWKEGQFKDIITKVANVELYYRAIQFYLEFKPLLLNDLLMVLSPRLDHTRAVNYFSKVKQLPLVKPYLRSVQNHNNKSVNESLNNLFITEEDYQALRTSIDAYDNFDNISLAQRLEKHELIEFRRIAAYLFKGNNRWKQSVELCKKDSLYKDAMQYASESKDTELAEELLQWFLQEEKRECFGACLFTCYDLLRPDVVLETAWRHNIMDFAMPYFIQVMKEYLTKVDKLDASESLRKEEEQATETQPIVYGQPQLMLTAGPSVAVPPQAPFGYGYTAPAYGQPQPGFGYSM
clathrin/AP cages, sequence (P04973 whole entry partner): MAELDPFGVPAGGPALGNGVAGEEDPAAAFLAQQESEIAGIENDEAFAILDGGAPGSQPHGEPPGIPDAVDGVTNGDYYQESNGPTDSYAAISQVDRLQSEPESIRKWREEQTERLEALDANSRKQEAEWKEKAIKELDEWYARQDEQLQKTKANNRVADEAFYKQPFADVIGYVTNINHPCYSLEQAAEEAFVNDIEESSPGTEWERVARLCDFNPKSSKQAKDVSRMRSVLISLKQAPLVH
clathrin/AP cages, sequence (P04975 whole entry partner): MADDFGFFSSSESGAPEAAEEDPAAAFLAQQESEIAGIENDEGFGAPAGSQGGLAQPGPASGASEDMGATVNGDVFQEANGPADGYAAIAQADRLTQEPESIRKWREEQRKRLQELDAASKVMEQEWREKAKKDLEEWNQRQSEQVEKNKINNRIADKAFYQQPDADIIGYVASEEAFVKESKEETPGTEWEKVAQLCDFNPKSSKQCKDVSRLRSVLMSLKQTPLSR
assembled clathrin/AP cages (bovine (purified from bovine brain)), sequence (P49951 whole entry, looked up): as the sequence (P49951 whole entry) above

“FDNPVYQKTT (acyl-FDNPVYQKTT-OH; reading uncertain; also: acylated N-terminus, acyl group not given here)”: in test [1] (setting [3]), the “line-broadening Phe εH” value amounted to 3.60 Hz, the “line-broadening Thr10 γH” value stood at 2.95 Hz, the “line-broadening Tyr εH” value was found to be 3.45 Hz and the “line-broadening Val γH1” value is 5.20 Hz. Also, the “line-broadening Val γH2” value in test [1] (setting [3]) amounted to 3.82 Hz. Also, the “cage-induced line-broadening (in words)” value in test [1] (20 mg/ml clathrin/AP cages, pH 6.0) is recorded as “pronounced increase in the line widths”.
acyl-FDNPVYQKTT-OH (reading uncertain; also: acylated NH2 terminus) [wild-type LDL receptor internalization motif decapeptide …]: in test [2], the line-broadening, Phe εH came out at 3.6 Hz; the line-broadening, Thr9 γH was 3.18 Hz; the line-broadening, Thr10 γH came to 2.95 Hz; the line-broadening, Tyr εH came out at 3.45 Hz. In test [2], this molecule yielded a line-broadening, Val γH1 of 5.2 Hz and a line-broadening, Val γH2 of 3.82 Hz.

These data come from PMC2133019 (The Journal of Cell Biology, 1998).
